We go through four molecules from patent US20230212587A1, “Mutant Hydroxyphenylpyruvate Dioxygenase Polypeptide, Encoding Gene Thereof and Use Therefor” (Beijing Dabeinong Biotechnology Co., Ltd., priority 2019, published 2023).

Substitutions are numbered along the chain they refer to. Names and notes keep the numbering of the source.

The labels stand for the following.
B1: HaHPPD-02: native Helianthus annuus HPPD, SEQ ID NO: 93 (protein, listed as Helianthus annuus)
chain: MGTEATVAAVVAGDESDHPTSAFKLVGFKNFIRTNPMSDKFTVKNFHHIEFWCSDATNTARRFSWGLGMPIIFKSDLSTGNSTHASYLLRSGHLNFLFTAPYSPSISPTTTTASIPTFSHSASRHFTATHGLAVRAIAVEVEDAETAFAVSVANGAKPSSPPVTLGHNDVVLSEVKLYGDVVLRYVSYKNNTNNNNNNDNDNYIFLPGFEAMDKTSSFQELDYGIRRLDHAVGNVPELAPAVDYVKSFTGFHEFAEFTAEDVGTSESGLNSVVLACNSEMVLIPMNEPVYGTKRKSQIQTYLEHNEGAGVQHLALASEDIFRTLREMRKRSGVGGFEFMPSPPPTYYRNLKSRAGDVLSDEQIKECEELGILVDRDDQGTLLQIFTKPVGDRPTIFIEIIQRVGCMVKDDEGKVQQKAGCGGFGKGNFSELFKSIEEYEKTLEARSTTAAA
modifications: HaHPPD Amino Acid Sequence
B2: CaHPPD-F372A-02: Cicer arietinum HPPD mutant F372A, SEQ ID NO: 84 (protein)
chain: MGTIETQTGFKLVGFNNFVRTNPKSDRFKVKRFHHVEFWCPDATNTARRFSWGLGMPIVAKSDLSTGNQTHASYLLRSGDLNFLFTAAYSPSISLSAPHPTASIPSFSAPTSFAFSASHGLGVRAVAIEVDDAEFAYTTSVNHGAIPSSPPVVLDNRVKLAEVQLYGDVVLRYVSYNDPIETSNPNPNHWFLPGFEPVEETSSNQSIDFGIQRLDHAVGNVPELSSALNYVKQFTGFHEFAEFTAEDVGTSESGLNSTVLANNEETVLLPMNEPVYGTKRKSQIQTYLEHNEGAGLQHLALMSNDIFKTLREMRKRSGIGGFEFMPSPPPTYYSNLKKRVGDVLNDEQIKECEELGILVDKDDQGTLLQIATKPVGDRPTIFIEIIQRVGCMLKDDEGKEYQKGGCGGFGKGNFSELFKSIEEYEKTLEIKRTA
modifications: CaHPPDm-F372A Amino Acid Sequence
B3: BnHPPD-02: native Brassica napus HPPD, SEQ ID NO: 87 (protein, listed as Brassica napus)
chain: MGHENAAVCETQQHDDAASPGFKLVGFSKFVRKNPKSDKFKVKRFHHIEFWCGDATNVSRRFSWGLGMRFSAKSDLSTGNMVHASYLLTSGDLRFLFTAPYSPSLSAGEAQPSATASIPSFDHASCRSFFSSHGLGVRAVAIEVEDAESAFSISVANGAVPSSPPNVLNGAVTIAEVKLYGDVVLRYVSYYNGTVSFLPGFESVDDTSSFPLDYGIRRLDHAVGNVPELGPALTYLAGFTGFHQFAEFTADDVGTAESGLNSAVLANNDEMVLLPINEPVHGTKRKSQIQTFLEHNEGAGLQHLALMSEDIFRTLREMRKRSGVGGFDFMPSPPPTYYKNLKKRVGDVLSEEQIEECEELGILVDRDDQGTLLQIFTKPLGDRPTIFIEIIQRVGCMKRDEEGKVYQSGGCGGFGKGNFSELFKSIEEYEKTLEAKQLVG
modifications: BnHPPD Amino Acid Sequence
B4: BnHPPDm-F372A-02: Brassica napus HPPD mutant F372A, SEQ ID NO: 90 (protein)
chain: B3 chain with F376A
modifications: BnHPPDm-F372A Amino Acid Sequence

The test system of the first assay is Arabidopsis thaliana T1 plants. Kind of assay: Topramezone tolerance of transgenic Arabidopsis thaliana T1 plants (pesticide damage grade by bleached leaf area, score, resistance evaluation). The format is in vivo. As to conditions: HPPDs from different species; number of plants (of 16) in this grade; topramezone 25 g ai/ha (1x), 7 DAT. The procedure, abridged:
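Eighteen days after sowing, wild-type and HPPD-transgenic T1 Arabidopsis receive a topramezone spray at 1×, 2× or 4× field rate (25–100 g ai/ha) or water. Seven days later each plant is graded by its proportion of bleached leaf area.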
With B1, the “Classification and statistics of pesticide damage grade Grade 0” value worked out at 0; the “Classification and statistics of pesticide damage grade Grade 1” value was determined as 0; the “Classification and statistics of pesticide damage grade Grade 2” value is 0; the “Classification and statistics of pesticide damage grade Grade 3” value came out at 16.
For B2, the “Classification and statistics of pesticide damage grade Grade 0” value is 0; the “Classification and statistics of pesticide damage grade Grade 1” value is 13; the “Classification and statistics of pesticide damage grade Grade 2” value is recorded as 3; the “Classification and statistics of pesticide damage grade Grade 3” value is 0.
As to B3, the “Classification and statistics of pesticide damage grade Grade 0” value turned out to be 0; the “Classification and statistics of pesticide damage grade Grade 1” value is 0; the “Classification and statistics of pesticide damage grade Grade 2” value is given as 0; the “Classification and statistics of pesticide damage grade Grade 3” value was found to be 16.
As for B4, the “Classification and statistics of pesticide damage grade Grade 0” value is recorded as 0; the “Classification and statistics of pesticide damage grade Grade 1” value worked out at 4; the “Classification and statistics of pesticide damage grade Grade 2” value is reported as 12; the “Classification and statistics of pesticide damage grade Grade 3” value came to 0.

Still in this assay, the particulars now being: HPPDs from different species; number of plants (of 16) in this grade; topramezone 100 g ai/ha (4x), 7 DAT.
For B1, the “Classification and statistics of pesticide damage grade Grade 0” value amounted to 0; the “Classification and statistics of pesticide damage grade Grade 1” value stood at 0; the “Classification and statistics of pesticide damage grade Grade 2” value is reported as 0; the “Classification and statistics of pesticide damage grade Grade 3” value was 16.
For B2, the “Classification and statistics of pesticide damage grade Grade 0” value is 0; the “Classification and statistics of pesticide damage grade Grade 1” value came out at 0; the “Classification and statistics of pesticide damage grade Grade 2” value is reported as 0; the “Classification and statistics of pesticide damage grade Grade 3” value worked out at 16.
For B3, the “Classification and statistics of pesticide damage grade Grade 0” value was determined as 0; the “Classification and statistics of pesticide damage grade Grade 1” value worked out at 0; the “Classification and statistics of pesticide damage grade Grade 2” value came out at 0; the “Classification and statistics of pesticide damage grade Grade 3” value was determined as 16.
On to B4, for which the “Classification and statistics of pesticide damage grade Grade 0” value stood at 0; the “Classification and statistics of pesticide damage grade Grade 1” value came to 0; the “Classification and statistics of pesticide damage grade Grade 2” value is reported as 0; the “Classification and statistics of pesticide damage grade Grade 3” value is listed as 16.

The assay is the same for the next values; noted with them: HPPDs from different species; score for pesticide damage 0-100; topramezone 25 g ai/ha (1x), 7 DAT.
Consider B1, for which the Scores worked out at 100.
Molecule B2 registered a Scores of 40.
Same read-out and setting: to B3 belongs 100.
Still for that read-out and setting: to B4 belongs 58.

The assay is the same for the next values; noted with them: HPPDs from different species; score for pesticide damage 0-100; topramezone 100 g ai/ha (4x), 7 DAT.
For B1, the Scores is given as 100.
The same measure, in the same setting: to B2 belongs 100; to B3, 100; to B4, 100.

The assay is the same for the next values; noted with them: HPPDs from different species; topramezone 25 g ai/ha (1x), 7 DAT.
As for B1, the Resistance evaluation result was “non-resistant (non-resistant plants (scores 68-100))”.
Turning to B2, the Resistance evaluation result is “poorly resistant (poorly resistant plants (scores 34-67))”.
Take B3: the Resistance evaluation result was “non-resistant (non-resistant plants (scores 68-100))”.
Turning to B4, the Resistance evaluation entry is on record as “poorly resistant (poorly resistant plants (scores 34-67))”.

The same assay, now with this note: HPPDs from different species; topramezone 100 g ai/ha (4x), 7 DAT.
Turning to B1, the Resistance evaluation entry is listed as “non-resistant (non-resistant plants (scores 68-100))”.
Regarding B2, the Resistance evaluation result is given as “non-resistant (non-resistant plants (scores 68-100))”.
On the same count and under the same terms, to B3 belongs “non-resistant (non-resistant plants (scores 68-100))”.
The same measure, in the same setting: to B4 belongs “non-resistant (non-resistant plants (scores 68-100))”.
